Assay results from the supplement of paper PMC5998384.

How the values were obtained:
[1] = test system: HeLa Kyoto; experiment: solubility in G1/S (NP-40 vs SDS abundance) (log2 ratio); higher = more soluble; conditions: cell cycle stage: G1/S
[2] = test system: HeLa Kyoto; experiment: solubility change mitosis vs G1/S (difference of NP-40 vs SDS log2 ratios) (log2 ratio difference); higher = more soluble in mitosis
[3] = test system: HeLa Kyoto; experiment: melting temperature (median over replicates), in situ; higher = more thermally stable
[4] = test system: HeLa Kyoto; experiment: thermal stability score vs G1/S (z-score of summed log2 fold changes over temperatures); higher = more thermally stable than in G1/S
[5] = cell cycle stage: early G1 (4.5 h after nocodazole release)
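Throughout, for melting temperature (median over replicates), in situ: HeLa Kyoto cells synchronized by double thymidine or nocodazole block, proteins quantified by TMT10plex mass spectrometry, three independent biological replicates.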
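Throughout, for solubility change mitosis vs G1/S (difference of NP-40 vs SDS log2 ratios): synchronized HeLa Kyoto cells (double thymidine block for G1/S, nocodazole release for mitosis), protein amounts in NP-40 versus SDS lysates quantified by mass spectrometry, three biological replicates.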
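Throughout, for solubility in G1/S (NP-40 vs SDS abundance): HeLa Kyoto cells arrested at G1/S by double thymidine block, proteins quantified by TMT10plex mass spectrometry in mild NP-40 versus SDS extracts, three biological replicates.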
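Throughout, for thermal stability score vs G1/S (z-score of summed log2 fold changes over temperatures): synchronized HeLa Kyoto cells, proteins quantified by TMT10plex mass spectrometry, three biological replicates, mitosis taken 0.5 h after nocodazole release, G1/S directly after double thymidine block.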

| Sequence | solubility in G1/S (log2) [1] | solubility change mitosis (log2) [2] | melting temperature ([3]; cell cycle stage: G1/S) [°C] | melting temperature ([3]; cell cycle stage: mitosis) [°C] | thermal stability score [4, 5] | thermal stability score ([4]; cell cycle stage: mitosis) |
| --- | --- | --- | --- | --- | --- | --- |
| MAVAVAMAGALIGSEPGPAEELAKLEYLSLVSKVCTELDNHLGINDKDLAEFVISLAEKNTTFDTFKASLVKNGAEFTDSLISNLLRLIQTMRPPAKPSTSKDPVVKPKTEKEKLKELFPVLCQPDNPSVRTMLDEDDVKVAVDVLKELEALMPSAAGQEKQRDAEHRDRTKKKKRSRSRDRNRDRDRDRERNRDRDHKRRHRSRSRSRSRTRERNKVKSRYRSRSRSQSPPKDRKDRDKYGERNLDRWRDKHVDRPPPEEPTIGDIYNGKVTSIMQFGCFVQLEGLRKRWEGLVHISELRREGRVANVADVVSKGQRVKVKVLSFTGTKTSLSMKDVDQETGEDLNPNRRRNLVGETNEETSMRNPDRPTHLSLVSAPEVEDDSLERKRLTRISDPEKWEIKQMIAANVLSKEEFPDFDEETGILPKVDDEEDEDLEIELVEEEPPFLRGHTKQSMDMSPIKIVKNPDGSLSQAAMMQSALAKERRELKQAQREAEMDSIPMGLNKHWVDPLPDAEGRQIAANMRGIGMMPNDIPEWKKHAFGGNKASYGKKTQMSILEQRESLPIYKLKEQLVQAVHDNQILIVIGETGSGKTTQITQYLAEAGYTSRGKIGCTQPRRVAAMSVAKRVSEEFGCCLGQEVGYTIRFEDCTSPETVIKYMTDGMLLRECLIDPDLTQYAIIMLDEAHERTIHTDVLFGLLKKTVQKRQDMKLIVTSATLDAVKFSQYFYEAPIFTIPGRTYPVEILYTKEPETDYLDASLITVMQIHLTEPPGDILVFLTGQEEIDTACEILYERMKSLGPDVPELIILPVYSALPSEMQTRIFDPAPPGSRKVVIATNIAETSLTIDGIYYVVDPGFVKQKVYNSKTGIDQLVVTPISQAQAKQRAGRAGRTGPGKCYRLYTERAYRDEMLTTNVPEIQRTNLASTVLSLKAMGINDLLSFDFMDAPPMETLITAMEQLYTLGALDDEGLLTRLGRRMAEFPLEPMLCKMLIMSVHLGCSEEMLTIVSMLSVQNVFYRPKDKQALADQKKAKFHQTEGDHLTLLAVYNSWKNNKFSNPWCYENFIQARSLRRAQDIRKQMLGIMDRHKLDVVSCGKSTVRVQKAICSGFFRNAAKKDPQEGYRTLIDQQVVYIHPSSALFNRQPEWVVYHELVLTTKEYMREVTTIDPRWLVEFAPAFFKVSDPTKLSKQKKQQRLEPLYNRYEEPNAWRISRAFRRR [DHX8] | -0.655 | 0.24 | 49.9 | 50.7 | 1.86 | 4.58 |
| MAPRLQLEKAAWRWAETVRPEEVSQEHIETAYRIWLEPCIRGVCRRNCKGNPNCLVGIGEHIWLGEIDENSFHNIDDPNCERRKKNSFVGLTNLGATCYVNTFLQVWFLNLELRQALYLCPSTCSDYMLGDGIQEEKDYEPQTICEHLQYLFALLQNSNRRYIDPSGFVKALGLDTGQQQDAQEFSKLFMSLLEDTLSKQKNPDVRNIVQQQFCGEYAYVTVCNQCGRESKLLSKFYELELNIQGHKQLTDCISEFLKEEKLEGDNRYFCENCQSKQNATRKIRLLSLPCTLNLQLMRFVFDRQTGHKKKLNTYIGFSEILDMEPYVEHKGGSYVYELSAVLIHRGVSAYSGHYIAHVKDPQSGEWYKFNDEDIEKMEGKKLQLGIEEDLAEPSKSQTRKPKCGKGTHCSRNAYMLVYRLQTQEKPNTTVQVPAFLQELVDRDNSKFEEWCIEMAEMRKQSVDKGKAKHEEVKELYQRLPAGAEPYEFVSLEWLQKWLDESTPTKPIDNHACLCSHDKLHPDKISIMKRISEYAADIFYSRYGGGPRLTVKALCKECVVERCRILRLKNQLNEDYKTVNNLLKAAVKGSDGFWVGKSSLRSWRQLALEQLDEQDGDAEQSNGKMNGSTLNKDESKEERKEEEELNFNEDILCPHGELCISENERRLVSKEAWSKLQQYFPKAPEFPSYKECCSQCKILEREGEENEALHKMIANEQKTSLPNLFQDKNRPCLSNWPEDTDVLYIVSQFFVEEWRKFVRKPTRCSPVSSVGNSALLCPHGGLMFTFASMTKEDSKLIALIWPSEWQMIQKLFVVDHVIKITRIEVGDVNPSETQYISEPKLCPECREGLLCQQQRDLREYTQATIYVHKVVDNKKVMKDSAPELNVSSSETEEDKEEAKPDGEKDPDFNQSNGGTKRQKISHQNYIAYQKQVIRRSMRHRKVRGEKALLVSANQTLKELKIQIMHAFSVAPFDQNLSIDGKILSDDCATLGTLGVIPESVILLKADEPIADYAAMDDVMQVCMPEEGFKGTGLLGH [USP48] | -0.074 | -0.183 | 47.4 | 49.1 | 1.52 | 2.6 |
| MSAPDEGRRDPPKPKGKTLGSFFGSLPGFSSARNLVANAHSSARARPAADPTGAPAAEAAQPQAQVAAHPEQTAPWTEKELQPSEKMVSGAKDLVCSKMSRAKDAVSSGVASVVDVAKGVVQGGLDTTRSALTGTKEVVSSGVTGAMDMAKGAVQGGLDTSKAVLTGTKDTVSTGLTGAVNVAKGTVQAGVDTTKTVLTGTKDTVTTGVMGAVNLAKGTVQTGVETSKAVLTGTKDAVSTGLTGAVNVARGSIQTGVDTSKTVLTGTKDTVCSGVTGAMNVAKGTIQTGVDTSKTVLTGTKDTVCSGVTGAMNVAKGTIQTGVDTSKTVLTGTKDTVCSGVTGAMNVAKGTIQTGVDTTKTVLTGTKNTVCSGVTGAVNLAKEAIQGGLDTTKSMVMGTKDTMSTGLTGAANVAKGAMQTGLNTTQNIATGTKDTVCSGVTGAMNLARGTIQTGVDTTKIVLTGTKDTVCSGVTGAANVAKGAVQGGLDTTKSVLTGTKDAVSTGLTGAVNVAKGTVQTGVDTTKTVLTGTKDTVCSGVTSAVNVAKGAVQGGLDTTKSVVIGTKDTMSTGLTGAANVAKGAVQTGVDTAKTVLTGTKDTVTTGLVGAVNVAKGTVQTGMDTTKTVLTGTKDTIYSGVTSAVNVAKGAVQTGLKTTQNIATGTKNTFGSGVTSAVNVAKGAAQTGVDTAKTVLTGTKDTVTTGLMGAVNVAKGTVQTSVDTTKTVLTGTKDTVCSGVTGAANVAKGAIQGGLDTTKSVLTGTKDAVSTGLTGAVKLAKGTVQTGMDTTKTVLTGTKDAVCSGVTGAANVAKGAVQMGVDTAKTVLTGTKDTVCSGVTGAANVAKGAVQTGLKTTQNIATGTKNTLGSGVTGAAKVAKGAVQGGLDTTKSVLTGTKDAVSTGLTGAVNLAKGTVQTGVDTSKTVLTGTKDTVCSGVTGAVNVAKGTVQTGVDTAKTVLSGAKDAVTTGVTGAVNVAKGTVQTGVDASKAVLMGTKDTVFSGVTGAMSMAKGAVQGGLDTTKTVLTGTKDAVSAGLMGSGNVATGATHTGLSTFQNWLPSTPATSWGGLTSSRTTDNGGEQTALSPQEAPFSGISTPPDVLSVGPEPAWEAAATTKGLATDVATFTQGAAPGREDTGLLATTHGPEEAPRLAMLQNELEGLGDIFHPMNAEEQAQLAASQPGPKVLSAEQGSYFVRLGDLGPSFRQRAFEHAVSHLQHGQFQARDTLAQLQDCFRLIEKAQQAPEGQPRLDQGSGASAEDAAVQEERDAGVLSRVCGLLRQLHTAYSGLVSSLQGLPAELQQPVGRARHSLCELYGIVASAGSVEELPAERLVQSREGVHQAWQGLEQLLEGLQHNPPLSWLVGPFALPAGGQ [PLIN4] | 0.21 | -0.0221 | 52.4 | 52.3 | 1.29 | 2.31 |
| MASLDRVKVLVLGDSGVGKSSLVHLLCQNQVLGNPSWTVGCSVDVRVHDYKEGTPEEKTYYIELWDVGGSVGSASSVKSTRAVFYNSVNGIIFVHDLTNKKSSQNLRRWSLEALNRDLVPTGVLVTNGDYDQEQFADNQIPLLVIGTKLDQIHETKRHEVLTRTAFLAEDFNPEEINLDCTNPRYLAAGSSNAVKLSRFFDKVIEKRYFLREGNQIPGFPDRKRFGAGTLKSLHYD [RABL3] | 0.0735 | -0.0274 | 52 | 51.9 | -0.0942 | -1.09 |
| MPGRAPLRTVPGALGAWLLGGLWAWTLCGLCSLGAVGAPRPCQAPQQWEGRQVMYQQSSGRNSRALLSYDGLNQRVRVLDERKALIPCKRLFEYILLYKDGVMFQIDQATKQCSKMTLTQPWDPLDIPQNSTFEDQYSIGGPQEQITVQEWSDRKSARSYETWIGIYTVKDCYPVQETFTINYSVILSTRFFDIQLGIKDPSVFTPPSTCQMAQLEKMSEDCSW [EPDR1] | 0.348 | -0.162 | 56.1 | 55 | -1.3 | -2.65 |
| MCNTPTYCDLGKAAKDVFNKGYGFGMVKIDLKTKSCSGVEFSTSGHAYTDTGKASGNLETKYKVCNYGLTFTQKWNTDNTLGTEISWENKLAEGLKLTLDTIFVPNTGKKSGKLKASYKRDCFSVGSNVDIDFSGPTIYGWAVLAFEGWLAGYQMSFDTAKSKLSQNNFALGYKAADFQLHTHVNDGTEFGGSIYQKVNEKIETSINLAWTAGSNNTRFGIAAKYMLDCRTSLSAKVNNASLIGLGYTQTLRPGVKLTLSALIDGKNFSAGGHKVGLGFELEA [VDAC3] | -0.0264 | -0.0561 | 61.6 | 59.9 | -1.43 | -4.76 |
| MRRKEKRLLQAVALVLAALVLLPNVGLWALYRERQPDGTPGGSGAAVAPAAGQGSHSRQKKTFFLGDGQKLKDWHDKEAIRRDAQRVGNGEQGRPYPMTDAERVDQAYRENGFNIYVSDKISLNRSLPDIRHPNCNSKRYLETLPNTSIIIPFHNEGWSSLLRTVHSVLNRSPPELVAEIVLVDDFSDREHLKKPLEDYMALFPSVRILRTKKREGLIRTRMLGASVATGDVITFLDSHCEANVNWLPPLLDRIARNRKTIVCPMIDVIDHDDFRYETQAGDAMRGAFDWEMYYKRIPIPPELQKADPSDPFESPVMAGGLFAVDRKWFWELGGYDPGLEIWGGEQYEISFKVWMCGGRMEDIPCSRVGHIYRKYVPYKVPAGVSLARNLKRVAEVWMDEYAEYIYQRRPEYRHLSAGDVAVQKKLRSSLNCKSFKWFMTKIAWDLPKFYPPVEPPAAAWGEIRNVGTGLCADTKHGALGSPLRLEGCVRGRGEAAWNNMQVFTFTWREDIRPGDPQHTKKFCFDAISHTSPVTLYDCHSMKGNQLWKYRKDKTLYHPVSGSCMDCSESDHRIFMNTCNPSSLTQQWLFEHTNSTVLEKFNRN [GALNT10] | -0.106 | -0.0786 | 49.9 | 52.5 | 0.401 | 0.507 |
| MLCGRPRSSSDNRNFLRERAGLSSAAVQTRIGNSAASRRSPAARPPVPAPPALPRGRPGTEGSTSLSAPAVLVVAVAVVVVVVSAVAWAMANYIHVPPGSPEVPKLNVTVQDQEEHRCREGALSLLQHLRPHWDPQEVTLQLFTDGITNKLIGCYVGNTMEDVVLVRIYGNKTELLVDRDEEVKSFRVLQAHGCAPQLYCTFNNGLCYEFIQGEALDPKHVCNPAIFRLIARQLAKIHAIHAHNGWIPKSNLWLKMGKYFSLIPTGFADEDINKRFLSDIPSSQILQEEMTWMKEILSNLGSPVVLCHNDLLCKNIIYNEKQGDVQFIDYEYSGYNYLAYDIGNHFNEFAGVSDVDYSLYPDRELQSQWLRAYLEAYKEFKGFGTEVTEKEVEILFIQVNQFALASHFFWGLWALIQAKYSTIEFDFLGYAIVRFNQYFKMKPEVTALKVPE [ETNK1] | -0.0579 | -0.288 | 53 | 51.9 | -1.17 | -1.91 |
| MNAEPERKFGVVVVGVGRAGSVRMRDLRNPHPSSAFLNLIGFVSRRELGSIDGVQQISLEDALSSQEVEVAYICSESSSHEDYIRQFLNAGKHVLVEYPMTLSLAAAQELWELAEQKGKVLHEEHVELLMEEFAFLKKEVVGKDLLKGSLLFTAGPLEEERFGFPAFSGISRLTWLVSLFGELSLVSATLEERKEDQYMKMTVCLETEKKSPLSWIEEKGPGLKRNRYLSFHFKSGSLENVPNVGVNKNIFLKDQNIFVQKLLGQFSEKELAAEKKRILHCLGLAEEIQKYCCSRK [BLVRA] | 0.108 | -0.0957 | 54.9 | 55 | -0.499 | -0.397 |
